Source: patent publication US5877009, “Isolated ApoA-I gene regulatory sequence elements” (Trustees of Boston University)

How the values were obtained:
[1] = target: T1, C/EBP (C/EBPalpha) (Rattus norvegicus, UniProt P05554 P05554:1-358); test: EMSA; C/EBP-BA3 complex; settings: tags: E. coli pT7-7, about 40 kDa; chain copies: 2; label: 32P
[2] = target: T1, C/EBP (C/EBPalpha); test: EMSA; settings: tags: E. coli pT7-7, about 40 kDa, chain copies: 2
[3] = target: T1, C/EBP (C/EBPalpha); test: EMSA; text cites SEQ ID NO:41, Table 3 lists AlbD as SEQ ID NO:47; settings: tags: E. coli pT7-7, about 40 kDa; chain copies: 2; label: 32P

T1 sequence (P05554 whole entry, one chain of several): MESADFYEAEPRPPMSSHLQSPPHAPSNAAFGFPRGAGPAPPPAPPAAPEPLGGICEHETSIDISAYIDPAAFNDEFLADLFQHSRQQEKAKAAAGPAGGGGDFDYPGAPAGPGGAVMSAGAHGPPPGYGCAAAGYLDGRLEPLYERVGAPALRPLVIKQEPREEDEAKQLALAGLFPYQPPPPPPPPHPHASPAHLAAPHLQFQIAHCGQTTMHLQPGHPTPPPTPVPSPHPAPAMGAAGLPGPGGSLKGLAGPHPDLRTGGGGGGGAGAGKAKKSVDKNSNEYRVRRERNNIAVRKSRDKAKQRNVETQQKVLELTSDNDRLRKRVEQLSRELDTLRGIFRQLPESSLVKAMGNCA

B1: BA3 apoB -78 to -48 (dsDNA)
DNA 1: GCCCTTTGGACCTTTTGCAATCCTGGCGCT
DNA 2: AGCGCCAGGATTGCAAAAGGTCCAAAGGGC
B1: binds [1].

B2: apoA-II element K (-760 to -743) (dsDNA)
DNA 1: TAAGGTGATCAAATGACC
DNA 2: GGTCATTTGATCACCTTA
B2: no binding [2].

B3: CIIIB(WT) apoCIII -92 to -67 (dsDNA)
DNA 1: GGTCAGCAGGTGACCTTTGCCCAGCG
DNA 2: CGCTGGGCAAAGGTCACCTGCTGACC
B3: no binding ([2]; label: 32P, GGG/CCC 5' overhangs).

B4: Albumin D C/EBP site (AlbD, -115 to -90) (dsDNA)
DNA 1: TGGTATGATTTTGTAATGGGGTAGGA
DNA 2: TCCTACCCCATTACAAAATCATACCA
B4: binds [3].
